Experimental data from US20210284750A1, “Immunoconjugate Synthesis Method” (priority 2017, published 2021).

How the values were obtained:
[1] = system: Human antigen presenting cells (APCs); test: APC-tumor co-culture: myeloid activation by flow cytometry; format: cell-based; details: 18 hours; for myeloid activation: APC-tumor co-culture
From the text: (§1) Isolation of Human Antigen Presenting Cells. Human antigen presenting cells (APCs) were negatively selected from human peripheral blood mononuclear cells obtained from healthy blood donors (Stanford Blood Center) by density gradient centrifugation using a RosetteSep Human Monocyte Enrichment Cocktail (Stem Cell Technologies) containing monoclonal antibodies against CD14, CD16, CD40, CD86, CD123, and HLA-DR. Immature APCs were subsequently purified to >97% purity via negative selection using an EasySep Human Monocyte Enrichment Kit without CD16 depletion containing monoclonal antibodies against CD14, CD16, CD40, CD86, CD123, and HLA-DR.
(§2) Preparation of Tumor Cells. Tumor cells were resuspended in PBS with 0.1% fetal bovine serum (FBS) at 1 to 10×10^6 cells/mL. Cells were subsequently incubated with 2 μM CFSE to yield a final concentration of 1 μM. The reaction was ended after 2 minutes via the addition of 10 mL complete medium with 10% FBS and washed once with complete medium. Cells were either fixed in 2% paraformaldehyde and washed three times with PBS or left unfixed prior to freezing the cells in 10% DMSO, 20% FBS and 70% medium.
(§3) APC-Tumor Co-cultures. […] Cells and cell-free supernatants were analyzed after 18 hours via flow cytometry or ELISA.

[2] = system: Human antigen presenting cells (APCs); test: APC-tumor co-culture: cytokine secretion in cell-free supernatants (ELISA); format: cell-based; details: 18 hours
From the text: as §1, §2, §3

[3] = APCs with CFSE-labeled tumor cells, various concentrations, flow cytometry

B1: CD20 (protein, UniProt P11836 1-297, looked up)
B-lymphocyte antigen CD20: MTTPRNSVNGTFPAEPMKGPIAMQSGPKPLFRRMSSLVGPTQSFFMRESKTLGAVQIMNGLFHIALGGLLMIPAGIYAPICVTVWYPLWGGIMYIISGSLLAATEKNSRKCLVKGKMIMNSLSLFAAISGMILSIMDILNIKISHFLKMESLNFIRAHTPYINIYNCEPANPSEKNSPSTQYCYSIQSLFLGILSVMLIFAFFQELVIAGIVENEWKRTCSRPKSNIVLLSAEEKKEQTIEIKEEVVGLTETSSQPKNEEDIEIIPIQEEEEEETETNFPEPPQDQESSPIENDSSP
myeloid activation [1]: does not | myeloid activation ([1]; listed as unconjugated CD20 antibody): do not | myeloid activation as indicated by CD14 downregulation [1, 3]: does not | myeloid activation as indicated by CD16 downregulation [1, 3]: does not | myeloid activation as indicated by CD40 upregulation [1, 3]: does not | myeloid activation as indicated by CD86 upregulation [1, 3]: does not | myeloid activation as indicated by CD123 upregulation [1, 3]: does not | myeloid activation as indicated by HLA-DR upregulation [1, 3]: does not | cytokine secretion [2]: do not
